The values below come from patent US20180311331A1, “PROGNOSIS AND TREATMENT OF SQUAMOUS CELL CARCINOMAS” (THE REGENTS OF THE UNIVERSITY OF COLORADO, a body corporate, priority 2015, published 2018).

Where only a bound is given, the exact number is not on record here.

For one experiment, the system named is MDSCs. The note with it: without any effect on B and T cells, NK cells, or macrophages; cited from earlier work.
The target in a further experiment is T1, IL-8 (Homo sapiens, UniProt P10145).
T1 sequence (P10145 21-99): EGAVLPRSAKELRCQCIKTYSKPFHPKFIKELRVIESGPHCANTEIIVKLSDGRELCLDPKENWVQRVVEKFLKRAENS
The note with it: another study; cited from earlier work.

In experiment [1] the test system is MOE/E6E7 cells. The experiment is described as follows: Tumor growth and survival after injection of MOE/E6E7 cells expressing Cxcl14 into wildtype B6 mice. It is filed as in vivo, mouse. Particulars: wildtype B6 mice injected with MOE/E6E7 cells expressing Cxcl14. The protocol: (§1) Two MOE/E6E7 cell clones expressing Cxcl14 (clones 8 and 16) and one vector containing MOE/E6E7 cell clone were injected into the rear right flank of wildtype (A & B) and Rag1−/− (C & D) B6 mice (n=10, each group of wildtype; n=7, each group of Rag1−/). (A & C) Tumor growth was determined every week by the formula: volume=(width) 2×length. Survival rates were analyzed using a Kaplan-Meier estimator. (B & D) Time-to-event was determined for each group (vector only, Cxcl14-clone 8, Cxcl14-clone 16) with the event being tumor burden larger than 2,500 mm3. Deaths not associated with tumor were censored. P-values were determined by the Log-rank test.
(§2) CXCL14 is an evolutionary-conserved chemokine showing 98% homology between human CXCL14 and murine Cxcl14. […] To characterize immune cell infiltration regulated by Cxcl14 expression, the inventors analyzed various immune cells in tumor tissue, tumor draining lymph node (TDLN), and in spleen harvested from the wildtype B6 mice at 21 days after injection with a control or with Cxcl14 expressing MOE/E6E7 cells. […]
(§3) To determine whether CXCL14 affects tumor growth in vivo, the inventors utilized an HNSCC mouse model with MOE/E6E7 cells that form tumors in immunocompetent syngeneic mice. […] Next, the inventors determined whether CXCL14 directly induces chemotaxis of CD8^+ T and NK cells using the Transwell system and splenocytes isolated from B6 mice.

The test system of experiment [2] is CD8+ T, NK and Treg cells. Put plainly: Immune cell populations by flow cytometry in wildtype B6 mice bearing Cxcl14-expressing MOE/E6E7 cells. It counts as in vivo, mouse. The method, then: MOE/E6E7 cells with Cxcl14 (clones #8 and #16) or vector were injected into the right flank of B6 mice (n=3, each group). Tumor (A) and lymph nodes (B) tissues were harvested at 21 days post injection. Percentage of immune cell populations was determined by flow cytometry.
MOE/E6E7 cell clones expressing Cxcl14 (8 and 16) and one vector containing MOE/E6E7 cell clone were injected into the rear right flank of B6 mice (n=3, each group). Spleen was harvested at 21 days post injection and analyzed by flow cytometry. Relative abundance of Treg cells was determined using anti-CD4 and CD25 antibodies.
as §2, with “murine Cxcl14. To determine whether CXCL14 affects tumor growth in vivo, the inventors studied mouse oropharyngeal epithelial cells (MOE/E6E7) that form tumors in immunocompetent syngeneic C57BL/6 (B6) mice. […] To test tumor suppressor functions of CXCL14, the inventors established MOE/E6E7 cell lines that re-expressed their physiological levels of” for “murine”
On the technique in general: Flow cytometry measures light scatter and fluorescence of single cells or particles in a stream.

For experiment [3], the system named is MOE/E6E7 cells. Put plainly: Tumor growth and survival after injection of MOE/E6E7 cells expressing Cxcl14 into Rag1-/- B6 mice. It counts as in vivo, mouse. The method, then:
as §1, §2, §3

The subject of experiment [4] is myeloid-derived suppressor cells (MDSC). Put plainly: MDSC abundance by flow cytometry in tumor and spleen of Rag1-/- mice. It counts as in vivo, mouse. The note with it: mice injected with MOE/E6E7 cells re-expressing Cxcl14 vs empty vector, 23 days post injection. The protocol:
MOE/E6E7 cell clones expressing Cxcl14 (8 and 16) and one vector containing MOE/E6E7 cell clone were injected into Rag1−/− mice (n=4, each group). Tumor (A) and spleen (B) were harvested at 23 days post injection, homogenized, and analyzed by flow cytometry. Relative abundance of MDSC cells (A & B) was determined using anti-MHCII, anti-Gr1, and anti-CD11b+ antibodies.
The chemokine receptors CXCR1 and CXCR2 are of primary importance for the migration of granulocytes to sites of inflammation. A recent study has shown that CXCR2 is also required for MDSC infiltration into tumors for cancer development. Additionally, blocking CXCR2-mediated MDSC infiltration enhances efficacy of anti-PD1 therapy. […] Thus, it is likely that CXCR2 ligands produced by HNSCC cells recruit MDSCs into the TME, and that CXCL14 expression interferes with IL-8 mediated MDSC infiltration. Thus, it will be verified that CXCL14 expression in HPV+ HNSCC cells reverses the immunosuppressive microenvironment by inhibiting Cxcr2-mediated MDSC expansion and infiltration. These experiments will determine novel mechanisms by which downregulation of CXCL14 triggers immune suppression in the TME.

Experiment [5] concerns splenocytes isolated from B6 mice. Put plainly: In vitro migration assay using the Transwell system. It counts as cell-based, mouse. The method, then:
MOE cells with Cxcl14 or vector were cultured on the bottom chamber of a Transwell. Splenocytes were added to the upper chamber. After 12 hr incubation, migrated splenocytes to the bottom chamber were collected and analyzed by flow cytometry.
as §2, with “murine Cxcl14. To determine whether CXCL14 affects tumor growth in vivo, the inventors studied mouse oropharyngeal epithelial cells (MOE/E6E7) that form tumors in immunocompetent syngeneic C57BL/6 (B6) mice. […] To test tumor suppressor functions of CXCL14, the inventors established MOE/E6E7 cell lines that re-expressed their physiological levels of” for “murine”
as §3

Turning to `Nc1ccn([C@@H]2O[C@H](CO)[C@@H](O)C2(F)F)c(=O)n1` [gemcitabine], the “MDSC elimination in tumor-bearing mice” value in the experiment with MDSCs was “selectively eliminates MDSCs through apoptosis”.

B1: Cxcl14: chemokine, approximately 9.5 kD secreted protein; tested by re-expression in MOE/E6E7 tumor cells (clones 8 and 16) (protein, UniProt Q9WUQ5 23-99, looked up)
C-X-C motif chemokine 14: SKCKCSRKGPKIRYSDVKKLEMKPKYPHCEEKMVIVTTKSMSRYRGQEHCLHPKLQSTKRFIKWYNAWNEKRRVYEE
On to B1, for which the “Binding to IL-8” value with IL-8 is reported as “directly binds to IL-8”. In addition, the Tumor clearance result with MOE/E6E7 cells [1] was “a majority of B6 mice injected with MOE/E6E7 cells expressing Cxcl14 cleared tumors”. For the same molecule, the “Treg cells in spleens” value in experiment [2] (B6 mice with tumors re-expressing Cxcl14, 21 days post injection) is listed as “significantly decreased”. Also, the “Percentages of CD8+ T and NK cells in tumor tissues and TDLNs” value in experiment [2] (wildtype B6 mice, 21 days after injection, vs vector containing cells) is “highly increased”. The “Time to succumb to tumor burden” value in the experiment with MOE/E6E7 cells [3] (Rag1-/- B6 mice injected with MOE/E6E7 cells re-expressing Cxcl14) is given as at most 32 days post injection. For the same molecule, in the experiment with MOE/E6E7 cells [3] (Rag1-/- mice injected with Cxcl14 expressing MOE/E6E7 cells), the Tumor growth entry is “delayed tumor growth”. Besides, the “MDSCs in tumors and spleens” value in experiment [4] is recorded as “significantly decreased”. The “Migration of CD8+ T and NK cells to Cxcl14 expressing HNSCC cells” value in experiment [5] (12 hr incubation, compared to vector containing HNSCC cells) was 3-4 fold. For the same molecule, the “Migration of macrophages and CD4+ T cells” value in experiment [5] (CXCL14 expressing MOE/E6E7 cells, splenocytes from B6 mice) is on record as “little effect”.
